The target of test [1] is tBCMA [BCMA extracellular domain - PDL1 hinge & TM plus Trop2 cytoplasmic domain]. Briefly: cell-based or functional assay.
The target in test [2] is CD30 expressed on primary T cells transduced with BCL6 and BCL2L1 (Homo sapiens (Human)) (UniProt P28908). The test can be described thus: cell-based or functional assay.
Sequence of CD30 expressed on primary T cells transduced with BCL6 and BCL2L1 (Homo sapiens (Human)) (P28908 19-595 limits assumed): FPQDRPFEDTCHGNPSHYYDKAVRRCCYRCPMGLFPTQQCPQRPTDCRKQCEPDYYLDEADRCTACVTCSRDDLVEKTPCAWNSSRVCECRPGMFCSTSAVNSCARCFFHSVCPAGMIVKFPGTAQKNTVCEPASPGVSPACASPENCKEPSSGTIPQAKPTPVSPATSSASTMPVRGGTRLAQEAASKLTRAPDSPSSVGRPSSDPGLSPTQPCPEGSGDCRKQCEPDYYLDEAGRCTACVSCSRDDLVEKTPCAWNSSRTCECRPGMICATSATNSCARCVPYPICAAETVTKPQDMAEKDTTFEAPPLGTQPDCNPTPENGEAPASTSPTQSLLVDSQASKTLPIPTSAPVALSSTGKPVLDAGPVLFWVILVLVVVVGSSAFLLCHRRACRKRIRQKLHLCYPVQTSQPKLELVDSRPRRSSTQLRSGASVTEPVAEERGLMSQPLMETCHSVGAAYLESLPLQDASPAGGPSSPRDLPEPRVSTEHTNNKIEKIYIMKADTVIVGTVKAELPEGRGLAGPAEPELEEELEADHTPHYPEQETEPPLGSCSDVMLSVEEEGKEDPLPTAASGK

Sequence of tBCMA [BCMA extracellular domain - PDL1 hinge & TM plus Trop2 cytoplasmic domain] (chain, as listed by the source limits assumed, form in doubt): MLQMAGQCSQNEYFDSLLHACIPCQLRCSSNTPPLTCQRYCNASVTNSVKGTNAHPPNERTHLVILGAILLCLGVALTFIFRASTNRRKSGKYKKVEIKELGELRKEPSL

Turning to belantamab mafodotin (antibody), the percent change in live cell number (day 2) in test [1] was < 80%.

For brentuximab vedotin (antibody), in test [2], the percent change in live cell number was < 95%.

The record behind these values is patent publication US20240254192A1.
